Assay results reported in patent publication US9364516B2, “Treatment of fibrosis-related disorders using fibronectin binding proteins and polypeptides” (priority 2010, dated 2016).

Experiments:
Mouse carotid arteries = test: qRT-PCR of fibronectin and collagen I in carotid arteries after ligation; format: in vivo; details: III-11C set equal to 1, mean ± s.e.m., 3 arteries
Protocol: mRNA was isolated from RASMs 24 hours after incubation with 500 nM pUR4 or III-11C control peptides using RNAzol as per the manufacturer's instructions (Invitrogen). cDNA was prepared using a Superscript First Strand cDNA kit as per the manufacturer's instructions (Invitrogen). Mouse carotid arteries were harvested and frozen in liquid nitrogen. RNA was isolated using Trizol and purified using a QIAgen RNeasy Micro Kit. RNA integrity was examined with an Agilent 2100 Bioanalyser using RNA6000 NanoAssay (Agilent Technology). Whole transcriptome amplification was performed using Qiagen's QuantiTect Whole Transcriptome Amplification Kit. Quantitative RT-PCR analyses were performed using ABI Prism 7900HT sequence detection system (Applied Biosystems). The qRT-PCR primers for 3 mouse genes were obtained from ABI: GADPH (4352932E), fibronectin (Mm01256744_m1), and collagen Ia1 (Mm00801666_g1). TaqMan probe chemistry was used according to the manufacturer's instructions. qRT-PCR reactions were run in triplicate for each sample. The data was normalized to the levels of GAPDH in each sample, and the results were averaged.
(§1) Blood flow in the left carotid artery of 10-week-old FVB/NJ (FVB) mice was reduced by ligating the external and internal carotid arterial branches as described (Korshunov et al., “Flow-Induced Vascular Remodeling in the Mouse: A Model for Carotid Intima-Media Thickening,” Arterioscler. Thromb. Vasc. Biol. 23:2185-2191 (2003), which is hereby incorporated by reference in its entirety). Mice were anesthetized with an intraperitoneal injection of ketamine (80 mg/kg) and xylazine (5 mg/kg) as described in the above-cited referenced. The left common carotid artery was dissected free of the surrounding connective tissue and 50 μL of F-127 pluronic gel (BASF) containing 20 μmol/L pUR4 or III-11C was applied around the carotid artery. Animals were separated into 5 groups containing 5 to 10 animals each: (1) sham-operated, in which the branches of the left carotid artery were exposed and dissected out, but not ligated; (2) ligation; (3) ligation with pluronic gel; (4) ligation with pluronic gel containing III-11C; (5) ligation with pluronic gel containing pUR4.

[1] = tested on: left carotid artery of FVB mice; test: Carotid ligation flow-induced vascular remodeling, morphometry; format: in vivo, mouse
Protocol: Both sexes of FVB transgenic mice were used for the carotid ligation experiments, since no significant differences in their modeling response were reported between male and female mice. All procedures were approved by the University of Rochester Animal Care Committee, and were performed in accordance with the guidelines of the National Institutes of Health for the care and use of laboratory animals.
Digital images of Verhoeff-van Gieson elastic stained cross-sections were captured and morphometric analysis was performed using Image-Pro Plus software (Media Cybernetics, Md.). The circumferences of the lumen, internal elastic lamina (IEL) and external elastic lamina (EEL) in the sections were identified using the automatic trace mode in Image-Pro. The accuracy of the automated tracing was verified by visual inspection of the images. Cross-sectional areas of the lumen, neointima, media, adventitia, and the area encompassed by the EEL were measured. Vessel compartment volumes were calculated as described (Intengan et al., “Vascular Remodeling in Hypertension: Roles of Apoptosis, Inflammation, and Fibrosis,” Hypertension 38:581-587 (2001), which is hereby incorporated by reference in its entirety). Briefly, starting with the carotid bifurcation as the origin, a series of cross-sections of 5 μm were cut every 200 μm through the first mm length of the carotid artery. Morphometric analysis was performed at each point, and the average of each division was calculated, summed, and reported as the volume.
as §1
Blood flow in the left and right common carotid artery was measured using an ultrasonic transit-time volume flowmeter (Transonic Systems) before sacrifice. Animals were perfusion-fixed with 10% formalin 7 or 14 days after surgery. The common carotid arteries were harvested and embedded in paraffin. Cross-sections of 5 μm were cut from the bifurcation every 200 μm through the first mm length of the carotid artery as described (Korshunov et al., “Flow-Induced Vascular Remodeling in the Mouse: a Model for Carotid Intima-Media Thickening,” Arterioscler. Thromb. Vasc. Biol. 23:2185-2191 (2003), which is hereby incorporated by reference in its entirety). Sections were stained with Verhoeff-van Gieson elastic stain, and then subjected to morphometric analysis. […]

human saphenous veins = test: Ex vivo cultured human saphenous veins, intimal thickening; details: 15 μM, 14 days culture in 10% FBS/M199
Protocol: Saphenous veins were cut into 0.5 cm segments, and processed immediately (●) or cultured in 10% FBS/M199 containing 15 μM control III-11c peptide (▪) or pUR4 (▴) at 37° C. for 14 days. Veins were fixed, paraffin embedded, sectioned, and stained. Morphometric analysis was performed on six randomly chosen sections using Image-Pro Plus software. The intima/media ratio was determined by dividing intima area by media area. Paired student t-test was used to analyze the data. Data are expressed as mean±S.E.M. *p<0.05.
Human saphenous veins cultured in serum containing media develop intimal hyperplasia after 14 days in culture (Soyombo et al., “Intimal Proliferation in an Organ Culture of Human Saphenous Vein,” Am J Pathol. 137(6):1401-1410 (1990); Angelini et al., “Smooth Muscle Cell Proliferation in Response to Injury in an Organ Culture of Human Saphenous Vein,” Eur J Vasc Surg. 5(1):5-12 (1991); and Slomp et al., “Nature and Origin of the Neointima in Whole Vessel Wall Organ Culture of the Human Saphenous Vein,” Virchows Arch. 428(1):59-67 (1996), which are hereby incorporated by reference in their entirety). This system thus provides an ex vivo model system for studying mechanisms that lead to intimal hyperplasia that has distinct advantages over in vitro culture systems. […]

[2] = vessel compartments analyzed separately

B1: pUR4: 49-mer peptide derived from the bacterial F1 adhesin, His tagged, SEQ ID NO:1; class I fibronectin polymerization inhibitor (peptide)
chain: MRGSHHHHHHGSKDQSPLAGESGETEYITEVYGNQQNPVDIDKKLPNETGFSGNMVETEDTKLN
modifications: His tag; Bacterial adhesin derived peptide pUR4
- Col Ia1 mRNA, relative level, Day 4 (Mouse carotid arteries; 4 days post surgery): 0.60 ± 0.30
- Fibronectin mRNA, relative level, Day 4 (Mouse carotid arteries; 4 days post surgery): 0.70 ± 0.23
- Col Ia1 mRNA, relative level, Day 7 (Mouse carotid arteries; 7 days post surgery): 0.58 ± 0.36
- Fibronectin mRNA, relative level, Day 7 (Mouse carotid arteries; 7 days post surgery): 0.41 ± 0.23
- increase in lumen volume after ligation ([1]; 20 μmol/L in pluronic gel, periadventitial): prevented
- carotid (vascular) remodeling ([1]; 20 μmol/L in pluronic gel, periadventitial, 14 days after ligation): dramatically reduced
- effect on IMT at 7 days ([1]; 7 days after ligation): no statistical effect
- inhibition of adventitial thickening compared to III-11C ([1]; 14 days after ligation): 38%
- reduction of extent of IMT (intima-media thickening) vs control peptide ([1]; 14 days after ligation): 40%
- remodeling index, pUR4 vs III-11C ([1]; mouse, in vivo): not different
- outward remodeling (EEL volume) ([1]; no difference in EEL volume vs shams 7 days post ligation): prevented
- reduction of intima thickening [1, 2]: 63%
- reduction of media thickening [1, 2]: 27%
- intima/media ratio (human saphenous veins): decreases
